Test [1] concerns the target KR127 antibody (murine monoclonal antibody).
Test [2] has as its target humanized antibody HzKR127-3.2.
The target of test [3] is humanized antibody HzKR127-3.1.
Test [4] has as its target humanized antibody HzKR127-3.

From patent publication US20170260258A1 come the findings set out here.

Chain of GST-pre-S1 (1st to 56th amino acids) protein (P08515 whole entry): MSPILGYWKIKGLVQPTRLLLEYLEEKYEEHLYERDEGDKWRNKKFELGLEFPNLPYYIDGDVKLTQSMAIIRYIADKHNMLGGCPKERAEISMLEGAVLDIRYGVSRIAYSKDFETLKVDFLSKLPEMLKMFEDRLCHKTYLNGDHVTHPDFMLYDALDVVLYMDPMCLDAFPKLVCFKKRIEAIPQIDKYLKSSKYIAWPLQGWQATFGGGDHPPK
Chain of humanized antibody HzKR127-3 (VH, as listed by the source limits assumed, chain 1 of 2): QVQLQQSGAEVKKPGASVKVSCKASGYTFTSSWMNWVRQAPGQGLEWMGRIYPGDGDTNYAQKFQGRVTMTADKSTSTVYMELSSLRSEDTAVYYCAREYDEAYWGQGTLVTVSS
Chain of humanized antibody HzKR127-3 (VL, as listed by the source limits assumed, chain 2 of 2): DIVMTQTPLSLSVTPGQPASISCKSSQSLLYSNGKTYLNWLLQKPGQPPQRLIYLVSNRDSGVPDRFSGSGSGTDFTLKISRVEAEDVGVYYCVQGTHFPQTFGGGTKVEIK
Chain of humanized antibody HzKR127-3.1 (VH, as listed by the source, chain 1 of 2): as the sequence (VH, as listed by the source limits assumed, chain 1 of 2) above, with D101A counted along it
Chain of humanized antibody HzKR127-3.1 (VL, as listed by the source, chain 2 of 2): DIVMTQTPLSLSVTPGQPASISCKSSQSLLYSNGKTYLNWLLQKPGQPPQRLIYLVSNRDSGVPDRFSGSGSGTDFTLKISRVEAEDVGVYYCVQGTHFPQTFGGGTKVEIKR
Chain of humanized antibody HzKR127-3.2 (VH, as listed by the source, chain 1 of 2): as the sequence (VH, as listed by the source limits assumed, chain 1 of 2) above, with N59S, D101A counted along it
Chain of KR127 antibody (murine monoclonal antibody) (VH, as listed by the source, chain 1 of 2): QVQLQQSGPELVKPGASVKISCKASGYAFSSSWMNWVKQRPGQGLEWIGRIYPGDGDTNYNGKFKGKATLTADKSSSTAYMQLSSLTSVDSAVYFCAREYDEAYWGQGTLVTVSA
Chain of KR127 antibody (murine monoclonal antibody) (VL, as listed by the source, chain 2 of 2): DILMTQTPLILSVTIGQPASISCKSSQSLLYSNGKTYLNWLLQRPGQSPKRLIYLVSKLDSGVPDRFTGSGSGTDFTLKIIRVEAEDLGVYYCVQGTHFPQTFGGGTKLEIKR

Regarding “GST-pre-S1 (1st to 56th amino acids) protein (from UniProt P08515 1-218)”, the IC50 (read off the curve) in test [1] stood at 20 nM; in test [2], 2 nM; in test [3], 6 nM; in test [4], 30 nM.
